From article PMC7378079 (Scientific Reports, 2020)
Read-outs that look alike come from different tables or passages of the source.

Tests used:
TNKS2 (tankyrase 2) ARC4 [1] = target: T1, TNKS2 (tankyrase 2) ARC4 (Homo sapiens, UniProt Q9H2K2); experiment: FRET competition with YFP-TBM peptide (Ki calculated from IC50); DSF Tm shift […] °C at […]; assay type: binding
T1 construct: ARC4 domain (ankyrin repeat cluster 4); CFP-ARC4 fusion in FRET, unlabelled ARC4 in DSF
T1 sequence (Q9H2K2 484-649 limits assumed): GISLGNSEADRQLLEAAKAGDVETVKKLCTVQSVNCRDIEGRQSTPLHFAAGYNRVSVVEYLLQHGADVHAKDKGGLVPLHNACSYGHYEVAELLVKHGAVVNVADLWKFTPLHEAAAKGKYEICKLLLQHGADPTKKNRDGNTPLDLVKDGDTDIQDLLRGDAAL

TNKS2 (tankyrase 2) ARC4 [2] = target: T1, TNKS2 (tankyrase 2) ARC4; experiment: as above; assay type: binding; remark: listed apart in the source
unlabelled TNKS2 ARC4 = target: T2, unlabelled TNKS2 ARC4 (human, His6-MBP removed by TEV; the residual N-terminal SM is omitted; limits from the TNKS2 ARC4 crystal construct convention); experiment: differential scanning fluorimetry; 5 µM unlabelled TNKS2 ARC4, 5x SYPRO Orange, 100 µM TBM peptide; assay buffer pH 7.0, 1% DMSO; 20-95 °C at 1 °C/min; 4 replicates; conditions: both partners purified
T2 chain: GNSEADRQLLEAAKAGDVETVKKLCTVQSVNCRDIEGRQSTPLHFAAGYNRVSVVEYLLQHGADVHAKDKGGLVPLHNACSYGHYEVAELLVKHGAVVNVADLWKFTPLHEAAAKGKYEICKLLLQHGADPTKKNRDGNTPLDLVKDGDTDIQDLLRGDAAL

TNKS1 SAM(E1050K)-CFP = target: T3, TNKS1 SAM(E1050K)-CFP (human, UniProt O95271 1030-1089, E1050K); experiment: FRET or BRET; titration for Kd after Song et al.: CFP-fusion kept constant (50 nM to 1.1 µM), YFP-fusion 0-4,000 nM; FRET emission on excitation at 430 nm; assay buffer 10 mM Bis-Tris-Propane pH 7.0, 3% PEG20,000, 0.01% Triton-X100, 0.5 mM TCEP; 384-well plates, 4 replicates; the paper calls the constants an estimation; conditions: both partners purified
T3 construct: human tankyrase 1 (TNKS1), sterile alpha-motif (SAM) domain; also called ML surface mutant of the TNKS1 SAM domain; source: E. coli BL21(DE3), purified (IMAC); not shown: mCerulean (CFP), C-terminal, kept
T3 sequence (looked up): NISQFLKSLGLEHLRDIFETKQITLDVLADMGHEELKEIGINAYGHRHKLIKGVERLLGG

CFP-ARC2-3 (TNKS1) [3] = target: T4, CFP-ARC2-3 (TNKS1) (human, mCerulean fusion omitted; conventional ARC limits); experiment: as above; conditions: both partners purified
T4 chain: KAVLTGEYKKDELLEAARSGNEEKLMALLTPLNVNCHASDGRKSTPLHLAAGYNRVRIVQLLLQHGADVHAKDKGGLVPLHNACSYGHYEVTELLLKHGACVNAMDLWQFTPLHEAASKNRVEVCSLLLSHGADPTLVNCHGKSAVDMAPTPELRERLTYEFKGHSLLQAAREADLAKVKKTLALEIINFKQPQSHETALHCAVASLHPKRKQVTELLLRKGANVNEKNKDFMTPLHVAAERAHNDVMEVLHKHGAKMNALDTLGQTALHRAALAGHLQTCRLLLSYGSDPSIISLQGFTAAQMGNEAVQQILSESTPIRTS

CFP-ARC1 (TNKS1) = target: T5, CFP-ARC1 (TNKS1) (human, N-terminal mCerulean fusion omitted; conventional ARC limits); experiment: as above; conditions: both partners purified
T5 chain: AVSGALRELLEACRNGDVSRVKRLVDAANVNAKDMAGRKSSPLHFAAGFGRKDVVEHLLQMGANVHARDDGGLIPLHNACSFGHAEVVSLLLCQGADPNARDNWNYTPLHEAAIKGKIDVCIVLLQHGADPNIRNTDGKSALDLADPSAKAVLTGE

CFP-ARC2 (TNKS1) = target: T6, CFP-ARC2 (TNKS1) (human, N-terminal mCerulean fusion omitted; conventional ARC limits); experiment: as above; conditions: both partners purified
T6 chain: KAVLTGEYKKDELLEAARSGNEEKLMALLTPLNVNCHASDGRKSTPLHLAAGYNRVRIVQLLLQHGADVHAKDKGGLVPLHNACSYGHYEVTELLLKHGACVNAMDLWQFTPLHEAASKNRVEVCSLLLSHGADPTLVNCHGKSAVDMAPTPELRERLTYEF

CFP-ARC2-3 (TNKS1) [4] = target: T4, CFP-ARC2-3 (TNKS1); experiment: as above; conditions: both partners purified
CFP-ARC4 (TNKS1) = target: T7, CFP-ARC4 (TNKS1) (human, N-terminal mCerulean fusion omitted; limits by homology to TNKS2 ARC4 488-649); experiment: as above; conditions: both partners purified
T7 chain: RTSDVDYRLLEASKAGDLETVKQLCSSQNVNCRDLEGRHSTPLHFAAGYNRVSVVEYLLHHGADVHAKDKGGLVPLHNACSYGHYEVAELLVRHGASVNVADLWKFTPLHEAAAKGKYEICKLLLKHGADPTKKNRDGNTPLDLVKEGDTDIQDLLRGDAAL

CFP-ARC5 (TNKS1) = target: T8, CFP-ARC5 (TNKS1) (human, N-terminal mCerulean fusion omitted; conventional ARC limits); experiment: as above; conditions: both partners purified
T8 chain: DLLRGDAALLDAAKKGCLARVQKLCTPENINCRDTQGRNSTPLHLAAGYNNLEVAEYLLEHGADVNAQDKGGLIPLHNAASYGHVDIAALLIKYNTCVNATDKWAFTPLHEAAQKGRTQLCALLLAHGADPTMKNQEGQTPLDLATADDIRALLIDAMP

CFP-ARC1 (TNKS2) = target: T9, CFP-ARC1 (TNKS2) (human, N-terminal mCerulean fusion omitted; conventional ARC limits); experiment: as above; conditions: both partners purified
T9 chain: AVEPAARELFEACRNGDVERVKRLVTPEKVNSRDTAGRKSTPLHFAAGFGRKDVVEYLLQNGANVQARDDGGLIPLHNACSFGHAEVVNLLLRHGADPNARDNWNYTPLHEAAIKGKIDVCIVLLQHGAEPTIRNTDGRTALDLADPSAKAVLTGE

CFP-ARC4 (TNKS2) = target: T10, CFP-ARC4 (TNKS2) (human, N-terminal mCerulean fusion omitted; limits from the TNKS2 ARC4 crystal construct convention (e.g. 3TWR), as Table S1 is not shown); experiment: as above; conditions: both partners purified
T10 chain: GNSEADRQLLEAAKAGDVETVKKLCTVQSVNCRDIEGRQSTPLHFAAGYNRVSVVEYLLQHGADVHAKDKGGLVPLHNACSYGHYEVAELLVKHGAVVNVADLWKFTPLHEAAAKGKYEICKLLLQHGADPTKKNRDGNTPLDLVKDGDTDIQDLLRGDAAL

CFP-ARC5 (TNKS2) = target: T11, CFP-ARC5 (TNKS2) (human, N-terminal mCerulean fusion omitted; conventional ARC limits); experiment: as above; conditions: both partners purified
T11 chain: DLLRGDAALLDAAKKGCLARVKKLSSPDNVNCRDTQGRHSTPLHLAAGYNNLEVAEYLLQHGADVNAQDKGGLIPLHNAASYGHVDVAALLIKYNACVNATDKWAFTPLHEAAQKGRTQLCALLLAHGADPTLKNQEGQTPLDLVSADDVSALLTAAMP

O=C(O)c1cc(O)c2c(Cl)cc(Cl)cc2n1 [DCKA, 5,7-dichlorokynurenic acid]
Ki (TNKS2 (tankyrase 2) ARC4 [1]): 62000 nM

O=c1[nH]c2cc(C(F)(F)F)c(N3CCOCC3)cc2n(CP(=O)(O)O)c1=O [Fanapanel]
Ki (TNKS2 (tankyrase 2) ARC4 [2]): 20000 nM

B1: TBM-peptide (REAGDGEE) (peptide)
peptide: REAGDGEE
notes: also called 8-mer TBM peptide; source: synthetic peptide, bought: JPT Peptide Technologies
Tm shift at 100 µM (unlabelled TNKS2 ARC4): 2.94 ± 0.16 °C

B2: TNKS1 SAM(Y1073A)-YFP (domain or fragment, human, UniProt O95271 1030-1089, looked up)
chain: NISQFLKSLGLEHLRDIFETEQITLDVLADMGHEELKEIGINAAGHRHKLIKGVERLLGG
notes: human tankyrase 1 (TNKS1), sterile alpha-motif (SAM) domain; also called EH surface mutant of the TNKS1 SAM domain; source: E. coli BL21(DE3), purified (IMAC); not shown: mCitrine (YFP), C-terminal, kept
Kd (TNKS1 SAM(E1050K)-CFP): 560 nM

B3: YFP-TBM (peptide)
chain: REAGDGEE
notes: also called TBM (REAGDGEE); YFP-fused TBM; source: E. coli BL21(DE3), purified (IMAC); not shown: mCitrine (YFP), N-terminal, kept
Kd (CFP-ARC2-3 (TNKS1) [3]): 13 nM
Kd (CFP-ARC1 (TNKS1)): 2600 nM
Kd (CFP-ARC2 (TNKS1)): 8.2 nM
Kd (CFP-ARC2-3 (TNKS1) [4]): 12 nM
Kd (CFP-ARC4 (TNKS1)): 45 nM
Kd (CFP-ARC5 (TNKS1)): 27 nM
Kd (CFP-ARC1 (TNKS2)): 970 nM
Kd (CFP-ARC4 (TNKS2)): 35 nM
Kd (CFP-ARC5 (TNKS2)): 33 nM
